Measured values reported in the supplement of paper PMC9170038.

Test system: MS2 coat protein
Assay: apparent KD of MS2 coat protein; designed switch direction (-1 OFF switch, 1 ON switch): -1; higher = weaker reporter binding
How it was run: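 Normalised cluster fluorescence was curve-fitted, and each design's median over clusters is its apparent KD. Before this, SNAP-549-labelled MS2 coat protein was titrated from 0.7 or 1.5 nM, doubling to 3 µM, over RNA switches transcribed on Illumina chips by stalled E. coli RNA polymerase. Titrations had no input, 200 uM small-molecule ligand, or an oligonucleotide input, and steps lasted 0.8–1.5 h (lowest) to 10–20 min (highest).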

[1] = input ligand: microRNA oligo, concentration not stated
[2] = Eterna round: R95, input ligand: FMN 200 uM
[3] = Eterna round: R95, input ligand: microRNA oligo, concentration not stated
[4] = Eterna round: R95, input ligand: none

Sequence	apparent KD of MS2 coat protein (input ligand: FMN 200 uM)	apparent KD of MS2 coat protein (input ligand: none)	apparent KD of MS2 coat protein [1]	apparent KD of MS2 coat protein [2]	apparent KD of MS2 coat protein [3]	apparent KD of MS2 coat protein [4]
CUAACAUGCUGGUGAUCAUACAUGAGGAUCACCCAUGUAACAAGCUUUUUGUUCGUCUUAUAAGAUCACCAGCAUGU [Stov1/9-B3] (Eterna round: R97, puzzle: Sensor, turn-off variant 1)	0.0138 µM	0.0182 µM	–	–	–	–
CUAAUACAUCAGGAUAUGUGUCGUGAUAGCGACACAGAAGGGAUGACAUGAGGAUCACCCAUGUCAAAGGGUGA [eternacac ex6r4 sub23] (Eterna round: R97, puzzle: Exclusion 6)	0.388 µM	0.519 µM	–	–	–	–
CUAAUAGCAGCAGGAUAUCUCACAUGAGGAUCACCCAUGUGGGACCGCCACCUCGUGUGUAAAGAAGAGAAGGGCUCGCACUCC [Eternabot solution 6] (Eterna round: R96, puzzle: Exclusion NG 2)	0.0376 µM	0.0261 µM	0.0128 µM	–	–	–
CUAAUAUAUCAGGAUAUGAUUUUAUGUGUUGGAUCAGAAGGGAUAACAUGAGGAUCACCCAUGUUGUGGAGUGA [JR_Ex6_Sub037] (Eterna round: R97, puzzle: Exclusion 6)	0.271 µM	0.112 µM	–	–	–	–
CUAGAUCAUUGGAUCUAGUACAUGAGGAUCACCCAUGUGACGAGUUACAUGUUAUAUAAGCUUUUUGCUCGUCAUUU [AK 1] (puzzle: Sensor v3, turn-off variant 1)	–	–	–	0.0634 µM	0.0811 µM	0.0863 µM
CUAGAUCUUCGGAUCUAGUACAUGAGGAUCACCCAUGUGACGAGUUUAUGGGUGAACAAGCUUUUUGCUCGUCUUAU [Sensor v3 - Turn-off variant 1 - 7] (puzzle: Sensor v3, turn-off variant 1)	–	–	–	0.0714 µM	0.0165 µM	0.0848 µM
CUAGCGAGUGUAGGAUAUCGGACUGUUUCAGUCUGAGAAGGACAUGAGGAUCACCCAUGUAUUGCUACGUGAGUAGCACGCUAG [JL ENG1 3.00] (Eterna round: R96, puzzle: Exclusion NG 1)	0.0329 µM	0.019 µM	0.0175 µM	–	–	–
CUAGCGAGUGUAGGAUAUCGGACUGUUUCAGUCUGAGAAGGACAUGAGGAUCACCCAUGUAUUGCUGCGUGAGUAGCACGCUAG [JL ENG1 3.99] (Eterna round: R96, puzzle: Exclusion NG 1)	0.0324 µM	0.0195 µM	0.0156 µM	–	–	–
CUAGCUUCGGCUAGUACAAGCUUUUUGCUCGUCUUAUUAACAUGAGGAUCACCCAUGUCAAAGAGACCUCAUGUAUU [Sensor v3 - turn-off variant 2 - 2] (puzzle: Sensor v3, turn-off variant 2)	–	–	–	0.347 µM	0.0155 µM	0.572 µM
CUAUGGCAAGGAUAUACGUAUCAUGUGACGAUAGCUCAAGAACAUGAGGAUCACCCAUGUAGAAGGUGCGGAGA [Eternabot (L1) Solution 90] (Eterna round: R97, puzzle: Exclusion 2)	0.0542 µM	0.0546 µM	–	–	–	–
CUAUGUUAGCAGGAUAUGCCAUUAUUCUUUUUCGCAGAAGGGCUUACAUGAGGAUCACCCAUGUUACAUUUCUU [JR_E6_Sub086] (Eterna round: R96, puzzle: Exclusion 6)	0.0426 µM	0.0185 µM	0.0149 µM	–	–	–
CUAUGUUAGCAGGAUAUGCCAUUAUUCUUUUUCGCAGAAGGGCUUACAUGAGGAUCACCCAUGUUACAUUUCUU [JR_E6_Sub086] (puzzle: Exclusion 6)	–	–	–	–	0.0167 µM	–
CUAUUCCGAGGAUAUACAUGAGGAUCACCCAUGUCGGGCCUCUGGCCUAAGGCCGAAAGUAGAAGGUGGGUUUC [JL Riri mod 10] (puzzle: Exclusion 3)	–	–	–	–	0.0542 µM	–
CUCAUACAUGAGGAUCACCCAUGUGAGGAUAUACUCCGCACCACACAGGUCGGGUAGCGUAGAAGGUAUUGGGU [Eternabot (L1) Solution 85] (Eterna round: R97, puzzle: Exclusion 1)	0.0963 µM	0.168 µM	–	–	–	–
CUCCAGACAGGAUAUACGAGGCUGUGUUCCCAUUAUAGGACACAUGAGGAUCACCCAUGUAGAAGGGUCAAUGG [Eternabot (L1) Solution 28] (Eterna round: R97, puzzle: Exclusion 2)	0.286 µM	0.742 µM	–	–	–	–
CUCCGGCAUGUAGGAUAUGGAUCCGAUUAGGAUCCAGAAGGACAUGAGGAUCACCCAUGUACAUGUAAACAGUCAUCACCGGAC [salish99_ExNG1_r04_202] (Eterna round: R96, puzzle: Exclusion NG 1)	0.284 µM	0.0442 µM	0.0299 µM	–	–	–
CUCCGGCGUGUAGGAUAUGGUUCCGUUUAGGUUCCAGAAGGACAUGAGGAUCACCCAUGUACAUGUCGUCGGUCGUCACCGGGC [salish99_ExNG1_r04_213] (Eterna round: R96, puzzle: Exclusion NG 1)	0.0873 µM	0.0331 µM	0.0288 µM	–	–	–
CUCCGGCGUGUAGGAUAUGGUUCCGUUUCGGUUCCAGAAGGACAUGAGGAUCACCCAUGUGCCUGUCGUCGGUCGUCACCGGGC [salish99_ExNG1_r04_217] (Eterna round: R96, puzzle: Exclusion NG 1)	0.0178 µM	0.0154 µM	0.0103 µM	–	–	–
CUCCUACAUGAGGAUCACCCAUGUCAGGAUAUCUCAGUGGUACCUAAAUUUACCACCCAGAGAAGGGACGUGCA [Diradireer] (puzzle: Exclusion 1)	–	–	–	–	0.0119 µM	–
CUCCUGCGAGGAUAUACAUAGUGACGUCUGUUUAAUCUUAAACAUGAGGAUCACCCAUGUAGAAGGUGCGUCAC [EX2 #82] (Eterna round: R97, puzzle: Exclusion 2)	0.0131 µM	0.0132 µM	–	–	–	–
CUCGGACAUGAGGAUCACCCAUGUGAGGAUAUGAUGCGAUCGUCGAAAGACGAUAGCAUCAGAAGGUACAAAUG [Fiskers Ex 1 - 22] (Eterna round: R96, puzzle: Exclusion 1)	0.0602 µM	0.0503 µM	0.0362 µM	–	–	–
CUCGGACAUGAGGAUCACCCAUGUGAGGAUAUGAUGCGAUCGUCGAAAGACGAUAGCAUCAGAAGGUACAAAUG [Fiskers Ex 1 - 22] (puzzle: Exclusion 1)	–	–	–	–	0.0556 µM	–
CUCGGGAGUCAGGAUAUCGGCACUUAUCAAUCACGAGAAGGGACGACAUGAGGAUCACCCAUGUGGGAAAAGAA [Ersoar] (puzzle: Exclusion 6)	–	–	–	0.252 µM	0.0894 µM	0.0847 µM
